Measurements as given in patent US20250215071A1, “Novel Mcl-1 inhibitor and combination of Mcl-1 and a BH3 mimetic, such as a Bcl-2 inhibitor” (NETRIS PHARMA, priority 2022, published 2025).

What was measured:
[1] = system: Mcl-1; assay: Mcl-1 immunohistochemistry on paired biopsies of phase I trial patients (NCT02977195); assay type: in vivo, human
Description: FIG. 7. Netrin-1 interference triggers Mcl-1 degradation in vitro and in vivo. (A,B): Netrin-1 silencing triggers Mcl-1 degradation. Breast cancer MCF7 cells were transfected with scramble (siCTRL) or netrin-1 (siNet) targeting siRNAs. 48 hours after transfection, cells were lysed by scraping and sonication in SDS-containing buffer. Protein levels of Mcl-1, netrin-1, and UNC5B, as well as B-actin and Ku80, used as housekeeping genes, were evaluated by western blot (A). Relative Mcl-1 protein levels, normalized to β-actin or Ku80, are shown in (B) (n=2, *** p<0.001, **** p<0.0001, ordinary two-way ANOVA with Sidak's multiple comparisons test). Activation of endogenous UNC5B upon netrin-1 silencing decreased Mcl-1 protein levels. Values are given as means±SEM. (C,D): Netrin-1 interference degrades Mcl-1 in a syngeneic breast cancer model. Stable EMT6 cells, constitutively over-expressing human Mcl-1, were engrafted in BALB/c mice. Once tumors reached a volume of 100 mm^3, mice were treated with Iso-mAb or NP137 antibodies and sacrificed 8 hours after treatment. Protein levels of Mcl-1 were then evaluated by western blot (C). […] Mcl-1 protein was quantified in paraffin-embedded slices on paired C1D1 and C3D1 biopsies and compared with clinical benefit (stable disease, SD, or progression disease, PD, at 6 weeks). Mcl-1 intensity was assessed in all, PD or SD biopsies (E) (n=6, Wilcoxon test). […]
The NP137 antibody is currently being assessed in several phase I and II clinical trials, in patients with advanced solid tumours. […] Mcl-1 presence was thus analysed by immunohistochemistry.
For histological examination of tumours engrafted in nude mice, ex vivo breast cancer slices, and from human clinical trial, tumours were fixed in 10% buffered formalin and embedded in paraffin. […] Quantification of caspase-3- and Mcl-1-positive cells was performed with HALO software and adapted algorithms cytonuclear v2.0.8 6 (Indica Labs, Albuquerque, NM, USA). MCL1 intensity, has been calculated in percentage over the surface of tumour cells. […]

[2] = human, in vivo; cited from earlier work

B1: NP137: humanized anti-netrin-1 monoclonal antibody, VH SEQ ID NO: 22, VL SEQ ID NO: 16, human IgG1 (antibody, V domains shown)
VH: QVQLQQSGPGLVKPSQTLSLTCAISGYTFTSYNMHWVRQATGQGLEWMGAIYPGNGDTSYNQKFKGRLTISKDTSKNQVVLTMTNMDPVDTATYYCARGGTGFAYWGQG
VL: DIQMTQSPSSLSASVGDRVTITCKASQSVSNDVAWYQQKPGQAPRLLIYYASNRYTGIPPRFSGSGYGTDFTLTINNIESEDAAYYFCQQDYSSPWTFGQG
modifications: human IgG1 constant region; humanized variant; MISC_FEATURE - CDR according to IGMT
In the case of B1, the “patient tumours with reduced Mcl-1 levels” value ([1]; all twelve patients, 14 mg/kg once every two weeks, C3D1 vs C1D1 biopsies) is reported as “nine out of the twelve”, the “patients with Mcl-1 decrease” value ([1]; six patients with progression disease (PD) at 6 weeks) is reported as “three of the six” and the “patients with Mcl-1 decrease” value ([1]; six patients with stable disease (SD) at 6 weeks) is reported as “six patients with SD showed Mcl-1 decrease”. The safety profile [2] was “extremely good safety profile”.
